Test results from US20230359371A1 (MODERNATX, published 2023).

Target: T1, OX40 receptor on mouse CD4+ T-cells (mouse, UniProt P47741 20-272)
T1 sequence (looked up): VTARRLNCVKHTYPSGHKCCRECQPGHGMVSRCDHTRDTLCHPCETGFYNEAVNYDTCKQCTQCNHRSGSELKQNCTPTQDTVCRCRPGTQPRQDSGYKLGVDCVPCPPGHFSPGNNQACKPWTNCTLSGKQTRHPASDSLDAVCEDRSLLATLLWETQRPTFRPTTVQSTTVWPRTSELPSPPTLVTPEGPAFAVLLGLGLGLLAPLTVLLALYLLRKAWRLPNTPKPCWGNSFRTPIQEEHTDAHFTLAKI
Test: cell-based or functional assay

B1: murine OX40L polypeptide expressed from mOX40L_miR122 mRNA (SEQ ID NO: 66) on the surface of B16F10 cells (ligand)
chain: MEGEGVQPLDENLENGSRPRFKWKKTLRLVVSGIKGAGMLLCFIYVCLQLSSSPAKDPPIQRLRGAVTRCEDGQLFISSYKNEYQTMEVQNNSVVIKCDGLYIIYLKGSFFQEVKIDLHFREDHNPISIPMLNDGRRIVFTVVASLAFKDKVYLTVNAPDTLCEHLQINDGELIVVQLTPGYCAPEGSYHSTVNQVPL
mouse IL-2 production by CD4+ T-cells (IL-2 ELISA), fold over mock-treated or non-translated mRNA control (about 6 ng/ml): ~2 fold
